# Data from patent publication US20160228506A1, “Compositions and Formulations for Prevention and Reduction of Tumorigenesis, Cancer Cell Proliferation and Invasion, and Methods of Production and Use Thereof in Cancer Treatment” (PRONUTRIA, INC., priority 2013, published 2016).
# Residue numbers refer to the chain shown, from its start. Numbers in names are those of the source.
# B1: SEQID-00298 (BS): nutritive polypeptide naturally produced in Cow (protein, listed as Bos taurus)
# chain: MGLSDGEWQLVLNAWGKVEADVAGHGQEVLIRLFTGHPETLEKFDKFKHLKTEAEMKASEDLKKHGNTVLTALGGILKKKGHHEAEVKHLAESHANKHKIPVKYLEFISDAIIHVLHAKHPSDFGADAQAAMSKALELFRNDMAAQYKVLGFHG
# B2: Reduced and alkylated SEQID-00363: SEQID-00363 with disulfide bonds reduced and alkylated (protein)
# chain: ATLDSWLSNEATVARTAILNNIGADGAWVSGADSGIVVASPSTDNPDYFYTWTRDSGLVLKTLVDLFRNGDTSLLSTIENYISAQAIVQGISNPSGDLSSGAGLGEPKFNVDETAYTGSWGRPQRDGPALRATAMIGFGQWLLDNGYTSTATDIVWPLVRNDLSYVAQYWNQTGYDLWEEVNGSSFFTIAVQHRALVEGSAFATAVGSSCSWCDSQAPEILCYLQSFWTGSFILANFDSSRSGKDANTLLGSIHTFDPEAACDDSTFQPCSPRALANHKEVVDSFRSIYTLNDGLSDSEAVAVGRYPEDTYYNGNPWFLCTLAAAEQLYDALYQWDKQGSLEVTDVSLDFFKALYSDAATGTYSSSSSTYSSIVDAVKTFADGFVSIVETHAASNGSMSEQYDKSDGEQLSARDLTWSYAALLTANNRRNSVVPASWGETSASSVPGTCAATSAIGTYSSVTVTSWPSIVATGGTTTTATPTGSGSVTSTSKTTATASKTSTSTSSTSCTTPTAVAVTFDLTATTTYGENIYLVGSISQLGDWETSDGIALSADKYTSSDPLWYVTVTLPAGESFEYKFIRIESDDSVEWESDPNREYTVPQACGTSTATVTDTWR
# modifications: disulfides reduced and alkylated; Aspergillus niger
# B3: Heat-denatured SEQID-00363: SEQID-00363 30 g/L in 10% PBS rapidly heated to 95° C. (protein)
# chain: B2 chain
# modifications: heat-denatured; Aspergillus niger
# B4: R134M: single amino acid mutant of SEQID-00338, substrate binding position 134 (protein, listed as Saccharomyces cerevisiae)
# chain: MSSSESIRMVLIGPPGAGKGTQAPNLQERFHAAHLATGDMLRSQIAKGTQLGLEAKKIMDQGGLVSDDIMVNMIKDELTNNPACKNGFILDGFPRTIPQAEKLDQMLKEQGTPLEKAIELKVDDELLVARITGMLIHPASGRSYHKIFNPPKEDMKDDVTGEALVQRSDDNADALKKRLAAYHAQTEPIVDFYKKTGIWAGVDASQPPATVWADILNKLGKD
# modifications: source: /note="strain ATCC 204508 / S288c"
# B5: R42T: single amino acid mutant of SEQID-00338, position 42 (protein, listed as Saccharomyces cerevisiae)
# chain: B4 chain with R42T, M134R
# modifications: source: /note="strain ATCC 204508 / S288c"
# B6: R42C: single amino acid mutant of SEQID-00338, position 42 (protein, listed as Saccharomyces cerevisiae)
# chain: B4 chain with R42C, M134R
# modifications: source: /note="strain ATCC 204508 / S288c"
# B7: D91I: single amino acid mutant of SEQID-00338, position 91 (protein, listed as Saccharomyces cerevisiae)
# chain: B4 chain with D91I, M134R
# modifications: source: /note="strain ATCC 204508 / S288c"
# B8: R42K: single amino acid mutant of SEQID-00338, position 42 (protein, listed as Saccharomyces cerevisiae)
# chain: B4 chain with R42K, M134R
# modifications: source: /note="strain ATCC 204508 / S288c"
# B9: R42I: single amino acid mutant of SEQID-00338, position 42 (protein, listed as Saccharomyces cerevisiae)
# chain: B4 chain with R42I, M134R
# modifications: source: /note="strain ATCC 204508 / S288c"
# B10: R42Q: single amino acid mutant of SEQID-00338, position 42 (protein, listed as Saccharomyces cerevisiae)
# chain: B4 chain with R42Q, M134R
# modifications: source: /note="strain ATCC 204508 / S288c"
# B11: R42L: single amino acid mutant of SEQID-00338, position 42 (protein, listed as Saccharomyces cerevisiae)
# chain: B4 chain with R42L, M134R
# modifications: source: /note="strain ATCC 204508 / S288c"
# B12: R134Y: single amino acid mutant of SEQID-00338, substrate binding position 134 (protein, listed as Saccharomyces cerevisiae)
# chain: B4 chain with M134Y
# modifications: source: /note="strain ATCC 204508 / S288c"
# B13: R42A: single amino acid mutant of SEQID-00338, substrate binding position 42 (protein, listed as Saccharomyces cerevisiae)
# chain: B4 chain with R42A, M134R
# modifications: source: /note="strain ATCC 204508 / S288c"
# B14: D91F: single amino acid mutant of SEQID-00338, magnesium ion binding site position 91 (protein, listed as Saccharomyces cerevisiae)
# chain: B4 chain with D91F, M134R
# modifications: source: /note="strain ATCC 204508 / S288c"
# B15: R42G: single amino acid mutant of SEQID-00338, position 42 (protein, listed as Saccharomyces cerevisiae)
# chain: B4 chain with R42G, M134R
# modifications: source: /note="strain ATCC 204508 / S288c"
# Test system: Pancreatin
# Experiment: not given
# Type: in vitro ADME, Porcine
# Conditions: not given
# Procedure: Control samples were protease-free.
# Analyses were performed using an Agilent 1100 series system.
row,Molecule,Free Leu (μM) at 120 min time point of Pancreatin digest [µM]
1,B1,1030.8
2,B2,598.1
3,B3,763.5

# Test system: SEQID-00338 kinase activity (AMP + ATP→ADP)
# Experiment: Kinase activity of SEQID-00338 (ADP-Glo Max Assay)
# Type: biochemical
# Conditions: 7 μg/mL, 30 minute reaction at 30° C.
# Procedure: The ADP-Glo™ Max Assay was obtained from Promega (Catalog number V7001, Madison, Wis.). Adenosine Monophosphate was obtained from Sigma-Aldrich (Catalog number A1752, St. Louis, Mo.). 5× Kinase Buffer was prepared w/ 1.211 g Tris Base (Catalog number BP152-2, Fisher Bioreagents, Pittsburgh, Pa.), 692 μL 12% hydrochloric acid solution (Catalog number BDH3026-500MLP, VWR, Radnor, Pa.), 10.0 mL 500 mM magnesium chloride (Catalog number BP214-500, Fisher Bioreagents, Pittsburgh, Pa.) and the volume brought to 50 mL with MilliQ water and filtered through 0.22 μm PES filter (Catalog number SCGP00525, Millipore, Billerica, Mass.) into a sterile 50 mL tube.
# Twelve his-tag purified mutant proteins and the wild-type protein at 35 μg/mL in Tris buffer were serially diluted to 7.0 and 1.4 μg/mL. Prepared kinase reaction mix at 0.5 mM AMP/0.5 mM ATP to test for activity and at 0 mM AMP/0 mM ATP to assay background activity by diluting 5× Kinase Buffer with appropriate volumes of 10 mM AMP and 10 mM ATP in MilliQ water. Duplicate reactions were prepared by mixing 9 μL of the reaction mixture with 6 μL of diluted SEQID-00338, mixing by pipetting up and down and dispensing 5 μL into a 384-well white OptiPlate (PerkinElmer, Waltham, Mass.). An ADP standard curve was prepared by serially diluting 4 mM ADP in MilliQ water and adding kinase buffer to 1× for a standard at 0.0005, 0.001, 0.005, 0.01, 0.05, 0.1, 0.5, 1, 2, 3, and 4 mM ADP. The plate was covered with a foil plate seal and incubated at 30° C. for 30 min. Following the kinase reaction, 5 μL of ADP-Glo™ Reagent was added to each well. The plate was sealed with a foil plate seal and placed on a horizontal plate shaker at 450 rpm for 2 minutes at room temperature. The plate was removed from the plate shaker and incubated at room temperature for 40 minutes. The plate was then centrifuged for 15 seconds at 1109×rcf and 10 μL of ADP-Glo™ Max Detection Reagent was added. The plate was sealed with a foil plate seal and shaken on a horizontal plate shaker at 450 rpm at room temperature for 2 minutes. The plate was then removed from the plate shaker and incubated at room temperature for 60 minutes. The plate was centrifuged for 15 seconds at 1109×rcf and the luminescence read on an EnspireAlpha plate reader (PerkinElmer, Waltham, Mass.).
# The ADP standard curve was used to determine the concentration of ADP in sample wells in the presence or absence of substrate. Concentrations were determined by performing a non-linear 4 parameter logistic on the X=log(X) transformed ADP standard luminescence values. […] Where the background concentration of ADP in the absence of substrate was calculable the average of those values were subtracted from the calculated ADP concentration in the substrate incubated wells. Activity knock out was calculated by percentage activity relative to purified wild-type protein at the same concentration.
row,AVG percent activity relative to purified wild-type protein [%],Molecule
1,0.3,B4
2,1.9,B5
3,1.8,B6
4,0.4,B7
5,2.2,B8
6,1.5,B9
7,1.2,B10
8,1.7,B11
9,0.2,B12
10,0.9,B13
11,0.9,B14
12,1.2,B15

# Test system: not listed separately
# Experiment: Intact half-life during simulated gastric fluid (SGF) digestion
# Conditions: SGF pH 1.5, pepsin:polypeptide 1:20 w/w, 37° C.; intact protein
# Procedure: In this experiment the nutritive polypeptide was exposed to a series of proteases that are active in the stomach (pepsin) and intestine (trypsin and chymotrypsin), and the presence of intact protein was measured over time. Specifically, the nutritive polypeptide was first treated at a concentration of 2 g/L with simulated gastric fluid (SGF) (0.03 M NaCl, titrated with HCl to pH 1.5 with a final pepsin:polypeptide ratio of 1:20 w/w) at 37° C. Time points were sampled from the reaction and quenched by addition of 0.2 M Na2CO3. […] Time points were sampled from the reaction and quenched by addition of Trypsin/Chymotrypsin Inhibitor (Sigma) solution until 240 min.
# Time point samples were analyzed for intact protein by chip electrophoresis, polyacrylamide gel electrophoresis, or western blot. For chip electrophoresis (Labchip GX II), samples were analyzed using a HT Low MW Protein Express LabChip® Kit (following the manufacturer's protocol). A protein ladder was loaded every 12 samples for molecular weight determination (kDa) and quantification. For polyacrylamide gel electrophoresis, samples (1 μg) were separated on a NuPAGE® Novex® Bis-Tris Precast gel (Life Technologies) according to the manufacturer's protocol. The gel was stained using SimplyBlue™ SafeStain (Invitrogen) and imaged using a Chemidoc XRS+ (BioRad) or transferred onto nitrocellulose membranes using the iBlot® Dry Blotting System (Life Technologies) and iBlot® Western Detection Kit (Life Technologies) according to the manufacturer's protocol. Proteins were detected by blotting with Anti-His [C-term]-HRP antibody diluted 3:5000 in Blok™-PO Blocking Buffer using the SNAP I.d.® Protein Detection System (Millipore) according to the manufacturer's protocol. Blots were treated with Luminata Classico Western HRP Substrate (Millipore) according to the manufacturer's protocol and imaged using chemiluminescent detection on the Molecular Imager® Gel Doc™ XR+ System (Bio-Rad). Quantification of intact protein was determined by densitometry using ImageLab (BioRad). For all analysis methods the relative concentration of the polypeptide at each time point (if detected) was plotted overtime and fit to an exponential curve to calculate the intact half-life.
# Specifically, the t=0 (enzyme-free control) and t=2 min samples from the SGF digest were analyzed for intact protein as described by chip electrophoresis, SDS-PAGE, western blot, and/or LC-MS/MS. Relative quantities of polypeptides at each time point were determined and the percentage of intact protein remaining at t=2 was determined. Intact half-life values determined using this method are reported as greater or less than 2 min to indicate more or less than 50% of the protein remained intact at t=2 min, respectively.
row,Molecule,SGF Half-life (t½) [min]
1,B1,0.1

# Same assay, conditions: native and modified forms of SEQID-00363, gel electrophoresis
row,Molecule,SGF Half-life (t½) [min]
1,B2,20.4
2,B3,20.4
